Test results reported in US20230295284A1 (MIT, published 2023).

B1: LMJ1.2C (VHH)
VHH: QVQLVETGGGLVQAGGSLRLSCAASGSTFSHSAGGWYRQAPEKQRELVAGIRSDGNINYADSVKDRFTISRDNASNTMYLQMNNLKPEDTAVYVCNIRGSYGNTYYSRWGQGTQVTVSS
modifications: sortase-tagged with biotin in the Western blots ; Purified by a his-tag for BLI and sortase-tagged with biotin in the Western blots. The tag letters are not stated for the free nanobody, so they are left out.
notes: First round of yeast display; Expressed in E. coli, his-tag purified
B2: LMJ2.5J (VHH)
VHH: QVQLVETRGGLVQAGGSLRLSCAVSGSTFSHSAGGWYRQAPEKQRELVAGIGSAGNINYADSVKDRFTISRDNASNTMYLQMNNLKPEDTAVYVCNIRGSYGNTYYSRWGQGTQVTVSS
modifications: sortase-tagged with biotin in the Western blots ; Western blots used the nanobody sortase-tagged with biotin at a terminus. The BLI material was his-tag purified. Tag letters are not stated for the stand-alone nanobody and are left out.
notes: Second round of yeast display; Expressed in E. coli, his-tag purified
B3: LMJ2.5C (VHH)
VHH: QVQLVETGGGLVQAGGSLRLSCAASGSTFSHSAGGWYRQAPEKQRELVAGVRSDGNINYADSVKDRFTISRDNASNTMYLQMNNLKPEDTAVYVCNIRGSYGNTYYSRWGQGIQVTVSS
modifications: sortase-tagged with biotin in the Western blots ; Purified by a his-tag for BLI and sortase-tagged with biotin in the Western blots. The tag letters are not stated for the free nanobody, so they are left out.
notes: as for B2
B4: LMJ1.3J (VHH)
VHH: QVQLVGTGGGLVQAGGSLRLSCAASGSTFSHSAGGWYRQAPEKQRELVAGISSAGNINYADSVKDRFTISRDNASNTMYLQMNNLKPEDTAVYVCNIRGSYGNTYYSRWGQGTQVTVSS
modifications: sortase-tagged with biotin in the Western blots ; Purified by a his-tag for BLI and sortase-tagged with biotin in the Western blots. The tag letters are not stated for the free nanobody, so they are left out.
notes: as for B1
B5: LMJ2.5I (VHH)
VHH: RVQLVETGGGLVQAGGSLRLSCAVSGSTFSHSAGGWYRQAPEKQRELVAGIRSDGNINYADSVKDRFTISRDNASNTMYLQMNNLKPEDTAVYVCNIRGSYGNTYYSRWGQGAQVTVSS
modifications: sortase-tagged with biotin in the Western blots ; Purified by a his-tag for BLI and sortase-tagged with biotin in the Western blots. The tag letters are not stated for the free nanobody, so they are left out.
notes: as for B2
B6: LMJ2.6A (VHH)
VHH: RVQLVETGGGLVQAGGSLRLSCAVSGRTFSHSAGGWYRQAPEKQRELVAGIRSDGNINYADSVKDRFTISRDNASNTMYLQMNNLKPGDTAVYVCNIRGSYGNTYYSRWGQGTQVTVSS
modifications: sortase-tagged with biotin in the Western blots ; Purified by a his-tag for BLI and sortase-tagged with biotin in the Western blots. The tag letters are not stated for the free nanobody, so they are left out.
notes: as for B2
B7: LMJ2.5G (VHH)
VHH: QVQLVETEGGLVQAGGSLRLSCAASGSTFSHSAGGWYRQAPEKQRELVAGIRSDGNINYADSVKDRFTISRDNASNTMYLQMNNLKPEDTAVYVCNIRGSYGNTYYSRWGQGTQVTVSS
modifications: sortase-tagged with biotin in the Western blots ; Western blots used the nanobody sortase-tagged with biotin at a terminus. The BLI material was his-tag purified. Tag letters are not stated for the stand-alone nanobody and are left out.
notes: as for B2
B8: LMJ2.4C (VHH)
VHH: QVQLVEAGGGLVQAGGSLRLSCAASGSTFSHSAGGWYRQAPEKQRELVAGIRSDGNINYADSVKDRFTISRDNASNTMYLQMNNLKPEDTAVYVCNIRGSYGNTYYSRWGQGIQVTVSS
modifications: sortase-tagged with biotin in the Western blots ; Purified by a his-tag for BLI and sortase-tagged with biotin in the Western blots. The tag letters are not stated for the free nanobody, so they are left out.
notes: as for B2
B9: LMJ2.5H (VHH)
VHH: QVQLVETGGGLVQAGGSLRLSCAVSGSTFSHSAGGWYRQAPEKQRELVAGIRSDGNINYADSVKDRFTISRDNASNTMYLQMNNLKPEDTAVYVCNIRGSYGNTYYSRWGQGTQVTVSS
modifications: sortase-tagged with biotin in the Western blots ; Western blots used the nanobody sortase-tagged with biotin at a terminus. The BLI material was his-tag purified. Tag letters are not stated for the stand-alone nanobody and are left out.
notes: as for B2
B10: LMJ1.2G (VHH)
VHH: QVQLVETGGGLVQAGGSLRLSCAASGSTFSHSAGGWYRQAPEKQRELVAGIGSDGNINYADSVKDRFTISRDNASNTMYLQMNNLKPEDTAVYVCNIRGSYGNTYYSRWGQGTQVTVSS
modifications: sortase-tagged with biotin in the Western blots ; Purified by a his-tag for BLI and sortase-tagged with biotin in the Western blots. The tag letters are not stated for the free nanobody, so they are left out.
notes: as for B1

These binders were tested against human plasma fibronectin (human, UniProt P02751-8 32-2296, limits assumed) (assay: Western blot, biotin-tagged nanobody).
human plasma fibronectin, sequence (P02751 other isoform, or with tags, fused parts or gaps limits assumed): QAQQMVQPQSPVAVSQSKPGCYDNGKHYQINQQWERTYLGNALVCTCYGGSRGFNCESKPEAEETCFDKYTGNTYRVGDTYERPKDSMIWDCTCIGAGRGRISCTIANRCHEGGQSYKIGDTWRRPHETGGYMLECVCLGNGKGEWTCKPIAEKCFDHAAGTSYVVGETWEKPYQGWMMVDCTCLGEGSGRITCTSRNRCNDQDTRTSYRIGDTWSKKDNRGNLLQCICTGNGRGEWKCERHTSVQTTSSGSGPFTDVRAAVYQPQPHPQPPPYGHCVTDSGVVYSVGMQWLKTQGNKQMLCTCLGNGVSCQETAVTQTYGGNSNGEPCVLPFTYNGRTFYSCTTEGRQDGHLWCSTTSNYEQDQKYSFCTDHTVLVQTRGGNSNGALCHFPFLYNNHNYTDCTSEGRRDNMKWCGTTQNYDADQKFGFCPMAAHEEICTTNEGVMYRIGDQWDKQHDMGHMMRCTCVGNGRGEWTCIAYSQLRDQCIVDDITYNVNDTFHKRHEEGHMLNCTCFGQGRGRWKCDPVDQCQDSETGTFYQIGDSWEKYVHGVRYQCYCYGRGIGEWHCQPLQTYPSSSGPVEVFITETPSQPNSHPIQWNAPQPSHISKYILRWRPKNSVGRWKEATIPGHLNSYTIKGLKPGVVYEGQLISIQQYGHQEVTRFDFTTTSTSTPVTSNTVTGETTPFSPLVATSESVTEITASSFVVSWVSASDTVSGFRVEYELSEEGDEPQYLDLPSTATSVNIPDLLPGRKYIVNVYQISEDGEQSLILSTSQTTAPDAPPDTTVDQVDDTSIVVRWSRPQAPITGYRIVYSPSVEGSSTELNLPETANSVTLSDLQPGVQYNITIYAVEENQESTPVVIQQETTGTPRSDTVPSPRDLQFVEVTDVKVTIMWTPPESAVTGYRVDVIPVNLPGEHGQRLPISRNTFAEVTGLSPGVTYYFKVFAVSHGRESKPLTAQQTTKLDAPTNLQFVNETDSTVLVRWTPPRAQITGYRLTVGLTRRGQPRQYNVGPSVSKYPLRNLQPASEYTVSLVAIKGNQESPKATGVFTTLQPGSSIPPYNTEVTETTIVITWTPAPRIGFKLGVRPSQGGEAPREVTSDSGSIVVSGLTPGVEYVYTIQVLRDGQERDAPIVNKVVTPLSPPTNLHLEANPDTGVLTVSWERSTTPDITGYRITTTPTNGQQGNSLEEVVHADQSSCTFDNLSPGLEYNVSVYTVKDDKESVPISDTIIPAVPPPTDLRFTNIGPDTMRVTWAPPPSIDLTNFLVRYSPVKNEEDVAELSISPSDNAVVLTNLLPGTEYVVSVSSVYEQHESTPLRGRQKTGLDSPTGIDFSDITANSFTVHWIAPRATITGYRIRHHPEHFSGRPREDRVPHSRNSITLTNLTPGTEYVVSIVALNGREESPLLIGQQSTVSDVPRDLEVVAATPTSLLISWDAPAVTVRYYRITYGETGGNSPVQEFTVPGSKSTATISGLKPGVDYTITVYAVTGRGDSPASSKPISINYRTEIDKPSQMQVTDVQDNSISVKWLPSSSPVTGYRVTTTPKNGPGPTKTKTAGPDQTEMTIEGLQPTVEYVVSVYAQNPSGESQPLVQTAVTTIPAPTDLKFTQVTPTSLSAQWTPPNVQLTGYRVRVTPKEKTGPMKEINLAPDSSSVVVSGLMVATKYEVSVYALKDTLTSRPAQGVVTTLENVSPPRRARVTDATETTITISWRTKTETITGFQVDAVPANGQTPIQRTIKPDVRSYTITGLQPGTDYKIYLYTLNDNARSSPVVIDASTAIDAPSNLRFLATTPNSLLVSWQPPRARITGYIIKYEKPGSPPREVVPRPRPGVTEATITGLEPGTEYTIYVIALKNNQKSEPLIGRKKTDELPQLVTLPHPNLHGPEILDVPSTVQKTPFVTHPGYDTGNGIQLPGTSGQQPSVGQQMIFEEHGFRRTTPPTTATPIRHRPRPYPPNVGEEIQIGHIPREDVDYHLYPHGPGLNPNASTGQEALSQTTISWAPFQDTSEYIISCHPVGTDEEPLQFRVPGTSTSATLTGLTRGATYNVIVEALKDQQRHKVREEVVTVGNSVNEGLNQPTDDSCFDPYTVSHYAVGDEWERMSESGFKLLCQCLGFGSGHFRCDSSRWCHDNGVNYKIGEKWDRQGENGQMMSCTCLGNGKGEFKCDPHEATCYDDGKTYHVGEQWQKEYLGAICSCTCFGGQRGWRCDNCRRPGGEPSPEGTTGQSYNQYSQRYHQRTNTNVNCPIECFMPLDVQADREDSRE

Binding result, no binding:
B1
B2
B3
B4
B5
B6
B7
B8
B9
B10
